One block for each binder: values may come before it.
Key:
[1] = biological target: T1, hCD3ε (human, UniProt P07766 23-126); test: SPR (Biacore); target printed only as hCD3; format not stated, not the Fab measurement
T1 construct: Also used for the value printed only as 'hCD3 (0.05 nM'); also called human CD3ε polypeptide

[2] = biological target: T1, hCD3ε; test: SPR (Biacore), Fab
[3] = biological target: T1, hCD3ε; test: SPR (Biacore), Fab; Fab
[4] = biological target: T2, human CLL-1 on cells (endogenous on HL-60, EOL-1 and other AML cell lines and CD14+ monocytes); recombinant on … (human, UniProt Q5QGZ9 1-265); test: Scatchard (125I-antibody competition), HL-60 cells
T2 construct: also called 293AD/huCLL-1; tumor-derived CLL-1
T2 sequence: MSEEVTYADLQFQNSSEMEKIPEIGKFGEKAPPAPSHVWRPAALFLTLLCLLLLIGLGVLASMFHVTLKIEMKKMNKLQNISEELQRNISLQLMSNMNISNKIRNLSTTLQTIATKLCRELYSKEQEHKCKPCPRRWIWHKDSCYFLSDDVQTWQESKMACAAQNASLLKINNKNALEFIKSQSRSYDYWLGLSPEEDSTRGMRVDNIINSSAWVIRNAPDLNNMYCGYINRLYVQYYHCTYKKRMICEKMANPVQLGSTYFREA
Description: (§1) Anti-CLL-1 antibodies were [I¹²⁵] labeled using the indirect lodogen method. […] Competition assay mixtures of 50 μL volume containing a fixed concentration of [1¹²⁵] labeled antibody and decreasing concentrations of serially diluted, unlabeled antibody were placed into 96-well plates. HEK293AD cells stably expressing recombinant hu or cynoCLL-1 or HL-60 tumor cells expressing endogenous CLL-1 were cultured in growth media at 37° C. in 5% CO₂. Cells were detached from the flask using Sigma Cell Dissociation Solution and were washed with binding buffer, which consisted of Dulbecco's Modified Eagle Medium (DMEM) with 1% bovine serum albumin (BSA), […] and 0.1% sodium azide. The washed cells were added to the 96 well plates at a density of 100,000 cells in 0.2 mL of binding buffer. […] The final concentration of the unlabeled antibody in the competition assay ranged from 1000 nM through ten 2-fold dilution steps to a 0 nM buffer-only assay. Competition assays were carried out in triplicate. Competition assays were incubated for 2 hours at room temperature. […] The filters were counted on a Wallac Wizard 1470 gamma counter (PerkinElmer Life and Analytical Sciences Inc.; Wellesley, Mass.). The binding data was evaluated using NewLigand software (Genentech), which uses the fitting algorithm of Munson and Robard to determine the binding affinity of the antibody (Munson and Robard 1980).

[5] = biological target: T2, human CLL-1 on cells (endogenous on …); test: Scatchard (125I-antibody competition), 293AD/huCLL-1 cells
Description: as §1

[6] = biological target: T3, cynomolgus CLL-1 on cells (recombinant on HEK293AD cells) (cynomolgus monkey); test: Scatchard (125I-antibody competition), 293AD/cynoCLL-1 cells
T3 construct: also called 293AD/cynoCLL-1; 293AD/cynoCLL1
T3 chain: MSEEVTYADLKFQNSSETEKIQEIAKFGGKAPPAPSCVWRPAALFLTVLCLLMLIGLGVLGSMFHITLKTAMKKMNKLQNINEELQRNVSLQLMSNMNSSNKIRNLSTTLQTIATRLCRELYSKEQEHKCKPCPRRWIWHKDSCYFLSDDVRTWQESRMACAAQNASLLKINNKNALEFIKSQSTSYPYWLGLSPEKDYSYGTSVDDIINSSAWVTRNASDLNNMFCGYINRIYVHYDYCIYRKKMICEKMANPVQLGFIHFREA
Description: as §1

[7] = biological target: T4, recombinant human CLL-1 extracellular domain (ECD, amino acids 65-265) fused to an N-terminal Flag (human, UniProt Q5QGZ9 65-265); test: SPR (Biacore T200), IgG captured by anti-human Fc, human CLL-1 as analyte
T4 construct: The construct and the K244Q SNP are stated for the immunogen; they are not written as a piece; also called huCLL-1-Flag; huCLL-1
T4 chain: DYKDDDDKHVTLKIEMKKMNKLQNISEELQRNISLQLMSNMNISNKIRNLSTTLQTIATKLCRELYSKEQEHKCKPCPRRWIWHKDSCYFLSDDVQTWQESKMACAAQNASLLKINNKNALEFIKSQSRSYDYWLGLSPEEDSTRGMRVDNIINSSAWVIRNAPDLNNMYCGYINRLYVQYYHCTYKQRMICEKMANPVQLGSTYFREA
Description: The binding affinity of the antibodies in this section was determined by BIAcore™ T200 Format. Briefly, BIAcore™ research grade CM5 chips were activated with 1-ethyl-3-(3-dimethylaminopropyl) carbodiimide (EDC) and N-hydroxysuccinimide (NHS) reagents according to the supplier's instructions. Goat anti-human Fc IgGs were coupled to the chips to achieve approximately 10,000 response units (RU) in each flow cell. Unreacted coupling groups were blocked with 1M ethanolamine. For kinetics measurements, antibodies were captured to achieve approximately 300 RU. Three-fold serial dilutions of human CLL-1 was injected in HBS-P buffer (0.01M HEPES pH7.4, 0.15M NaCl, 0.005% surfactant P20) at 25° C. with a flow rate of 30 μl/min. Association rates (kon) and dissociation rates (koff) were calculated using a 1:1 Langmuir binding model (BIAcore™ T200 Evaluation Software version 2.0). The equilibrium dissociation constant (Kd) was calculated as the ratio koff/kon.

[8] = biological target: T4, recombinant human CLL-1 extracellular …; test: SPR (Biacore), chimeric IgG captured by anti-human IgG, CLL-1 as analyte
Description: (§2) The chimeric anti-CLL-1 human IgG were captured by mouse anti-human IgG coated on the CM5 sensor chip. […] Association rates (kon) and dissociation rates (koff) were calculated using a simple one-to-one Langmuir binding model. The equilibrium dissociation constant (KD) was calculated as the ratio koff/kon.

[9] = biological target: T5, recombinant cynomolgus CLL-1 extracellular domain (ECD, amino acids 65-265) fused to an N-terminal Flag (cynomolgus monkey); test: as above
T5 construct: Construct stated for the immunogen; also called CynoCLL-1 Flag; cynoCLL-1
T5 chain: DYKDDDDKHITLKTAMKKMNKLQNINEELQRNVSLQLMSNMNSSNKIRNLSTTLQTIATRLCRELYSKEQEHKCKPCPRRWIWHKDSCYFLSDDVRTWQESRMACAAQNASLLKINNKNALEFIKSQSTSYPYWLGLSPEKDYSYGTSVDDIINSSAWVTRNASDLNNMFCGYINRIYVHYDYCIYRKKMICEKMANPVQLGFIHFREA
Description: as §2

T1 sequence (P07766 23-126): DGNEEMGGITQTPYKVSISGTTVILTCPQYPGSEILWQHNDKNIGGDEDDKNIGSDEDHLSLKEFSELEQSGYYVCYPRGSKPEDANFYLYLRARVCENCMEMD

B1: 38E4v11 (antibody, V domains shown)
VH: EVQLVQSGAEVKKPGASVKVSCKASGFTFTSYYIHWVRQAPGQGLEWIGWIYPENDNTKYNEKFKDRVTITADTSTSTAYLELSSLRSEDTAVYYCARDGYSRYYFDYWGQGTLVTVSS
VL: DIVMTQSPDSLAVSLGERATINCKSSQSLLNSRTRKNYLAWYQQKPGQSPKLLIYWTSTRKSGVPDRFSGSGSGTDFTLTISSLQAEDVAVYYCTQSFILRTFGQGTKVEIK
notes: also called h38E4v11
Kd [1]: 0.05 nM

B2: 38E4v11 Fab (Fab, V domains shown)
VH: B1 VH
VL: B1 VL
notes: Fab; also called 38E4v11 (Fab Biacore measurements)
Kd [2]: 0.032 nM
koff [2]: 0.0016 s⁻¹
kon [3]: 5e+07 M⁻¹ s⁻¹

Results, then the binder that gave them:

Kd [4]: 0.45 nM
Kd [5]: 0.59 nM
Kd [6]: 1.2 nM
Kd [7]: 8.62 nM
Kd [8]: 9.7 nM
koff [8]: 0.0024 s⁻¹
kon [8]: 250000 M⁻¹ s⁻¹
Kd [9]: 7.1 nM
koff [9]: 0.0012 s⁻¹
kon [9]: 160000 M⁻¹ s⁻¹
B3: ch21C9 (antibody, V domains shown)
VH: EVQLQQSGPELVKPGASVKMSCKASGYTFTDYYLDWVKQSHGESFEWIGRVNPYNGGTIYNQKFKGKATLTVDKSSSTAYMDLNSLTSEDSAVYYCARDHYRYDPLLDYWGQGTTLTVSS
VL: DIQMTQSHKFMSTSVGDRVSITCKASQDVSTAVAWFQQKPGQSPKLLIYSPSYRYTGVPDRFTGSGSGTDFTFTISSVQAEDLAVYYCQQLYSTPYTFGGGTKLEIK
notes: chimeric version of m21C9, human IgG; also called chimeric 21C9; Chimeric 21C9

Kd [4]: 0.65 nM
Kd [5]: 0.8 nM
Kd [6]: 1 nM
Kd [7]: 0.959 nM
Kd [8]: 0.9 nM
koff [8]: 0.00044 s⁻¹
kon [8]: 460000 M⁻¹ s⁻¹
Kd [9]: 1.1 nM
koff [9]: 0.00046 s⁻¹
kon [9]: 400000 M⁻¹ s⁻¹
B4: ch6E7 (antibody, V domains shown)
VH: QVQLQQSGPELVKPGASVKISCKASGYSFTDYYMHWVKQSHIKSLEWIGRINPYNGAAFYSQNFKDKASLTVDKSSSTAYMELHSLTSEDSAVYYCAIERGADLEGYAMDYWGQGTSVTVSS
VL: DIVLTQSPSSLIVSLGQRATISCRASQSVSTSSYNYMHWYQQKPGQPPKLLLKYASNLESGVPARFSGSGSGTDFTLNIHPVEEEDTATYYCQHSWEIPLTFGAGTKLEIK
notes: chimeric version of m6E7, human IgG; also called chimeric 6E7; Chimeric 6E7
